From the domain aggregation screens of Martell et al. (2025) come the findings set out here.

Where only a bound is given, the exact number is not on record here.

A short description of this data set: soluble fraction after stress (log2 fold change); higher = more stays soluble; pooled small domains, quantitative proteomics. To be noted: stress: 50 degC. The method, boiled down: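 Pooled custom libraries of small protein domains were each held under stress at 50°C. The read-out, high-throughput quantitative proteomics, tracked how much of each protein stayed soluble. This is reported as a base-two log fold change used to indicate aggregation propensity. Higher values mean more protein remains in solution.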
In the case of “HMQSDQLSDREREILRLIGSGRTNQEISQELQVSGSTVRTHLQHILDKLGLENRNQAVLYAIRIGLAAPP”, the “soluble fraction (log2)” value is -0.125.

On to “HMEDIPENIRYKFLLKELKENEHLNILDKENIARKLTEIDLPELEKELLENEILNSTIKDYLGIKLV”, for which the “soluble fraction (log2)” value came to 0.173.

“HMSSIGERISDVRKARGYTQDQLAERIHVSRQTISHWENERALPDFESIKQLSQVLGYDFSS”: the “soluble fraction (log2)” value is -0.00328.

Consider “HMIFDPTTLPEKQLLVYGIISSHPGLNAKQISEMLTLKKSSIETAIKGLRKKEIIEYEGTTRNGG”, for which the “soluble fraction (log2)” value is -0.182.

In the case of “HMTNPPTPADTLFNTVRGVLQSILKSPMKDTEVASALNVSKAQARSWLQRLSDEGLIEKRKNPTAYVL”, the “soluble fraction (log2)” value was -0.238.

In the case of “HMFIMQTVALGSEGPDVRALQSILNRIGYNAGTVDGIFGSRTRQAVIAFQRNNGLAADGVAGPATWG”, the “soluble fraction (log2)” value came to 0.122.

On to “HMSDIIVQGNRRLDTDLIITDSQIREIGTDEKSLSLAVKNLYKTGYFENVQIFKDNSVVFINVKENQ”, for which the “soluble fraction (log2)” value is -0.103.

For “HMRGGWESLTDREREIAVLAAEGHSNRTIASTLFISDRTVQSHVSRALRALGVDSRTGIPSLVTTATR”, the “soluble fraction (log2)” value is -0.0688.

For “HMGSIEASFEEDVRRYLARKSMTTTEISKKMRQKRPDMSRDQLMTLLANAIKRIKPIKKKIKGTLYLSLE”, the “soluble fraction (log2)” value was -1.3.

“HMGKDIYLTSGWVEKFDELNEFSNSVDNYDRLNQFGMYENAIIGDTGVIKITDEMIFDLYEKIQVPVEAGP”: the “soluble fraction (log2)” value was -0.185.

Take “HMGVRVEVDAVTPPGAMASGSVVFSDGESKKWSVDQFGRLAMTGGAPDYKPSDQDVMEFQQQLEQSL”: the “soluble fraction (log2)” value amounted to 0.054.

Take “HMDKTTIKNEQKKQILIFAEMNLFFKAKDVAELLGLQASRARYLLQELVKDGKIQGIGNNKGRKYQLI”: the “soluble fraction (log2)” value was -0.438.

On to “HMDFDPDVPSREDILQAFRDSKPPLTVNALISEFGLSRDASIVGLERRMGAMQRDGQLEQTPSGWQLSV”, for which the “soluble fraction (log2)” value was -0.158.

As for “HMDFITPYEIEQGQYEGAELYEDGKFEEAFSLSSIAAQRGMKTAQYLLGIMFLKGEYVDQSLAIGMAW”, the “soluble fraction (log2)” value is -0.272.

For the sequence “HMVLMPIDALRGSSSSSEMRIAAVKFSPSKGWYFSLQERSDEGSSYYEQKVASDGSVSERVKVR”, the “soluble fraction (log2)” value is -0.561.

For “HMEDDRLIQNLLLTAKNLVMDVGRMDESALAENEDTVRTAMLFALGYLYENRSNPDYHKLTLNLRSILFA”, the “soluble fraction (log2)” value was -0.493.

“HMKETLSDTVSRKLEDMITTQMKAGNRLPTEMVLAEMYSVGRSTIRESLKALSSKGLIVRKKDGTFVSDRV”: the “soluble fraction (log2)” value is -0.109.

For “HMEGNFFADIRQELMRELDQEAEWSDVQILEKIDDLVLLRTRRSSLTVNEKEQLRKELFYSVRK”, the “soluble fraction (log2)” value is -0.0909.

Turning to “HMKKISAKQQQILDYISSYSLEHGYPPSVREIGAEMGLRSPSTVHAHLKKLQEAGYLEPNEHKSRALTP”, the “soluble fraction (log2)” value worked out at 0.128.

In the case of “HMVTNELFGTRLRAFRKEKGLTIEQLAERVGLSPNYLGDIERGKKLPSMATFIRLVNELDISADEL”, the “soluble fraction (log2)” value was -0.293.

For “HMKELTYSDFRKAYPDIQGNLFGMAERYITALDWTEVAAKVETDEELRKERDIFYLVKTYIRKYVQ”, the “soluble fraction (log2)” value was -0.487.

Take “HMKNNLKGSPIIIAGGYGVGSKENFNLLFDLAKVLNAEVGASRAAVDAGFVEHDRQIGQTGVTVRP”: the “soluble fraction (log2)” value turned out to be 0.0735.

For “HMEPDTVVVPNFVGKVYASEIEGNEAYSDFTFVIKEGNDPEQDIGVVLKQTPNEGLEVKKGKEITLTINQ”, the “soluble fraction (log2)” value is -0.0593.

As for “HMELVQIIGNNIRDLMTTRSVTITDLANYLNVSRQTLQNYLRGSNIIDSVKLVAVSDFFDVPVESLLQSK”, the “soluble fraction (log2)” value is -1.04.

Turning to “HMTPTVEAAKEEVLRVLASAAPRGLTRTELEAEVSFRRTKLRDTLVELERIGRIDSVGRRGNATTYRLIG”, the “soluble fraction (log2)” value is -0.615.

Regarding “HMRMLTKRRQDLLLELLEERGSITVSEVKDMLDASESTIRRDITALDEEGKLVKVFGGAVAAR”, the “soluble fraction (log2)” value was -0.272.

Regarding “HMKERLLDPYKDFIVNYLQKYPYTPAAVMHDKLKESYPDFPKVDPKTIYNFVMLLRRDFNIPKV”, the “soluble fraction (log2)” value was -0.306.

For the sequence “HMIEINNLEDLKLMKEFILKNGKYGFGVFVGGKYIGLSDIGSVNSFKDTLGLPVVSLGNDDFKRFTEAH”, the “soluble fraction (log2)” value is -0.658.

As for “HMEAVIENAAIIKQNSGGYAVRATVNGVDLGMKPVERATALLYFSLTDKLEKDRLLSHTLQKTYGDLSA”, the “soluble fraction (log2)” value was -0.254.

Regarding “HMGESEKTLELVSQKDALVDEAFFFVRFQALLESNKTKGAQDLLDQSNHLSAAKLLQANAYLDIV”, the “soluble fraction (log2)” value was 0.119.

With “HMEKINLLVENNDNYRLDKIIALNMEELSRTQIQEMIGQGLVLVNGKVEKASYKTKLNDQIEITIED”, the “soluble fraction (log2)” value turned out to be 0.0401.

With “HMILNNAKINTELNSLAEFTQRSLDSNTSEIGFYDYKKISYIASFATMKTTNWNVIIRAPINEFMGTVN”, the “soluble fraction (log2)” value was 0.101.

Take “HMYSYNKEEVGKRIKSIRQQKGLTQESFGELFGASKGNVATWEKGISLPNASRLREIADLVSITVEELLYG”: the “soluble fraction (log2)” value was -0.346.

“HMKGVTVDGDNITVDGEKQTLISVNKNLDGDVVSYTYRTADGKLRTSRNVEVAQEINKQQLLKSIDAQ”: the “soluble fraction (log2)” value was determined as 0.0821.

Turning to “HMKIEETLGKTAQVYIPIPQYLSGIGKVTLSVRGSLRELDAMTEEEKIPSNTIVRIVKVQDQVLFVKRA”, the “soluble fraction (log2)” value is -0.74.

Turning to “HMKRTMVEAAMVAKLFNLTVRRIQQLTQDGVLTTELVDKKRRYDLLLTVQKYIAYLQEKVAK”, the “soluble fraction (log2)” value was -3.24.

In the case of “HMPATTMMVVVDRDLPYGHVLTDRDVRLETRRATSPGASVAFTSIDPVLGQSLTRPLGAGTPVGRADLR”, the “soluble fraction (log2)” value was -0.155.

Take “HMGDLEEAVKDFSEAIRLNDSWAEAYANRAVVYAEQGDAAQSDQDAEKARLLGVDQNRLNEMLNAVNS”: the “soluble fraction (log2)” value turned out to be 0.0258.

With “HMSISSSEAARSAVASSGGTVLGVSKASHGGYKAWAVRIQRADGSVVTGYVDRASGTVYDWVVNQAA”, the “soluble fraction (log2)” value was -0.3.

Take “HMPNPSAGRVHIDALLPFDRVEVTDMQGSLLLDHSFSPRRAVDLDLNARGTLLYTLWSKGHLLGKGRVVR”: the “soluble fraction (log2)” value is 0.0169.

“HMEVNLEPLIALLRKHRDLDLSGYSKSTLGRRITYFMGLNKISSIDELGRRLAEDDLLFQEFLDKLT”: the “soluble fraction (log2)” value is -0.0655.

On to “HMLGDIYISIPRAKLQAEEYGHSFKRELAFLAVHGFYHLLGYDHQTKEEEEVMFGKQEEVLAEFDIKR”, for which the “soluble fraction (log2)” value was -0.218.

In the case of “HMQSHGSRIWTDITGNFTREASFIELAEGKVTLQLTDGRRTIISFEILSKKDQEYVLDIGDS”, the “soluble fraction (log2)” value was -2.11.

For “HMATEPLQPRVEVLGSTLATTNGARIVGVYDMSGREVSATQLSKGVYIVKVTNGSVTATQKVFI”, the “soluble fraction (log2)” value stood at 0.112.

Consider “HMKKKLPRYLQEQKYGNGMVFYRYNPTARYIDEGIVTRTNLGSDLSIAKKKANEFNKLIDAFLQQQSE”, for which the “soluble fraction (log2)” value is -0.92.

Turning to “HMQDLVAVPALTGLTENDAINKAKANNLIAVVSEYKTENSVEPGKVLEQDPESSTEVKKGTIIKLVVS”, the “soluble fraction (log2)” value is ≥ 0.62.

Regarding “HMASSVKAPLPGVILDIKVKVGDTIKNGDTVVILEAMKMENNIHSDKDGVVKSIEVNKGDSVLEGATLLTI”, the “soluble fraction (log2)” value is -0.0654.

Consider “HMLMLTPGQIAQTLDVSTATVRRWSARYARHLSPNTPGKKRSYTVDDLAVLTRVRDLSATGTPLAQIDQAL”, for which the “soluble fraction (log2)” value is -2.02.

Take “HMTEEVIIQNYIGKNFNDVRDELEAKGITVDEPNMKYSDEFKENTIMAQSIKPGQPLKPGGFNSIKFDVS”: the “soluble fraction (log2)” value came to 0.211.

On to “HMRVQELARDLGVEADTLIALLRQMGIPVTGARSAINDAQQAKVLAKIERERRAGHSDPAKAIQAVLEEAS”, for which the “soluble fraction (log2)” value is 0.121.

Regarding “HMTKYKEIVDQLRTNIYEGVFPALSKLPEQTALAKRFQTSRMTIQKALNQLKQEGLISTKRGHGTYVNSAT”, the “soluble fraction (log2)” value is -0.298.

As for “HMGVDASVDSKLDLLSQVLDSDQVKEQLPEAVLEQLAQNLDRWRSLHEESELQDDDIAELNRLLGLFGLG”, the “soluble fraction (log2)” value was found to be 0.0425.

As for “HMDLPDYYFRVRENGAVVFRVGTENRQRRIEMVEIATVNVKNGNIKPHGEVDLTKADRLAIGEWLAARQAQ”, the “soluble fraction (log2)” value was -1.36.

On to “HMSGHIPGIKIKGVIFFDKGSSSNHIIATTENNSNLKLRVGETVQGAVLKSIHPNHVIFFHHNQLIEVGIG”, for which the “soluble fraction (log2)” value was -2.21.

Take “HMHEGNWTLPNPMPIGTTLTLPEHSRLYISNLAGQRVFETSATSVEIPLLPKGTYLLRLETMNGHTTRKIL”: the “soluble fraction (log2)” value was -0.0423.

“HMKISQSRKAGKLVLESELKRGGVSLDQYRGGRMSRILELIGVKSLNELLTDLGTGKKTGALVAERFFSGL”: the “soluble fraction (log2)” value is -0.444.

As for “HMTAVVPNFKGKLISELSNFVADKNVRYTIIDSIYDPEEKSGIVIKQDPEEKTQVKHNRIIYLYVTST”, the “soluble fraction (log2)” value was -1.53.

In the case of “HMKDHKSKWMAKTELDSIAKNLSKKHAISLDYEEDGTRFYAGGQSPLGIGRLFTVFVAPRNGHWSDQLR”, the “soluble fraction (log2)” value was 0.189.

Turning to “HMDALKAVYQWVTRTMMKNQTGVMQTLPNRDLIELNTQITAQRLMQAGVDPTTLKNANQVENAVNIIESR”, the “soluble fraction (log2)” value is -0.473.

As for “HMVPLSPRFFDIFRKRKDLTRQNVDVYFRDHPTEITAFERYIKGLVSQSYIPAERADALLLVASQYKAK”, the “soluble fraction (log2)” value is -0.784.

For the sequence “HMTAQASDIEKVLQVIETLGFRGHTLPGENRTAIGVTGNRGSIDPAHFENLPGVADAIRVTKPY”, the “soluble fraction (log2)” value came to 0.0639.

Consider “HMEQPAPSTTVDILGGGRAALVTANRELGLALADDEIDYLTDSFTQLGRNPVDVELMMFAQA”, for which the “soluble fraction (log2)” value stood at 0.00743.

Regarding “HMDPEEETLKNMQRMLQDSGPLKKTEFSLLAKSLGIAEKKARKLIDRGRGRFWTVESGEQKNTQLVTPIQ”, the “soluble fraction (log2)” value is -0.0247.

For the sequence “HMLTGESDNVEKSINKLGTENLALADQTNMGFKGTFINSGHGMAIVVKTGMQTELGKIASMIQIA”, the “soluble fraction (log2)” value is 0.21.

As for “HMAEPLYKQVKNKIIQNLTSDEWKPGSVIPSETKLAETYGVGVSTIRMAIGELVAARILIRRQGKGTFVSS”, the “soluble fraction (log2)” value was -1.85.

Take “HMAMMTKQRLIQLIHIARNDLQMDEDTYRQMLQGLTGKASTKGMDTPQLNRVLESMKKKGFRIK”: the “soluble fraction (log2)” value is -0.447.

Regarding “HMKRANGTGSVFKLNGKRRNPWVARVTQGFDDKGRQKYVNLGYYKTKREAENELLSYNSNPYDAN”, the “soluble fraction (log2)” value was determined as 0.214.

For “HMVLFDLSEREKEVLKLLADGNSYKMIASRLEITYFTVNAHLKKIYEKLQVHSASEAVSVALRNSL”, the “soluble fraction (log2)” value was -1.15.
